Test results: the nanobody polyreactivity screen of Harvey et al. (2022)

Assay: yeast display, Sf9 membrane polyspecificity reagent, FACS + sequencing; frameworks hold sequencing errors
Outline: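 A nanobody's polyreactivity label depends on the gate it was sorted from. Yeast display cells were stained with 10% biotinylated, detergent-solubilized Sf9 membrane reagent for 1 hour at 4 °C, enriched on streptavidin microbeads and sorted by FACS. The low and high (top ~1%) gates were set on anti-HA fluorescence for expression and streptavidin fluorescence for reagent binding.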

| Sequence | polyreactivity (PSR sort gate) |
| --- | --- |
| QVQLVESGGGLVQAGGSLRLSCAASGRIFDKYTMGWYRQAPGTERELVAAISKSGSGTFYADSVKGRFTISRDNAKNTVYLQMNSLKPEDTAVYYCARVYTVGTGRSWRLDYWGQGTQVTVSS | high polyreactivity |
| QVQLVESGGGLVQAGGSLRLSCAASGRIFDLNAMGWYRQAPGKERELVAAISYSGGRTFYADSVKGRFTISRDNAKNTVYLQMNSLKPEDTAVYYCNARYGKPAYQYRMDYWGQGTQVTVSS | low polyreactivity |
| QVQLVESGGGLVQAGGSLRLSCAASGRIFDLNAMGWYRQAPGKERELVASITTSTGSTYYADSVKGRFTISRDNAKNTVYLQMNSLKPEDTAVYYCAADKSTHPFPSDPGYGYWGQGTQVTVSS | low polyreactivity |
| QVQLVESGGGLVQAGGSLRLSCAASGRIFDLNAMGWYRQAPGKERELVATITRSGVSTYYADSVKGRFTISRDNAKNTVYLQLYSLKPEDTAVYYCAKDRYGWGYDYWGQGTQVTVSS | low polyreactivity |
| QVQLVESGGGLVQAGGSLRLSCAASGRIFDLYAMGWYRQAPGKERELVATISSGGSTYYADSVKVRFTISRDNAKNTVYLQMNSLKPEDTAVYYCAADSWVQFDYWGQGKQVTVSS | low polyreactivity |
| QVQLVESGGGLVQAGGSLRLSCAASGRIFDNYAMGWYRQAPGKERELVAAITSTGRTNYADSVKGRFTISRDNAKYTVYLQMYSLKPEDTAVYYCNVDYQYARSGHANAYEYYYWGQGTQVTVSS | low polyreactivity |
| QVQLVESGGGLVQAGGSLRLSCAASGRIFDNYVMGWYRQAPGKERELVAAITWDGTSTYYADSVKGRFTISRDNAKNTVYLQMNSLKPEDTAVYYCAADFYPYSWEEVDYWGQGTQVTVSS | low polyreactivity |
| QVQLVESGGGLVQAGGSLRLSCAASGRIFDPHAMGWYRPAPGKERELVASSTRRGGSTYYADSVKGRFTSSRDIAKNNVYLQMNSLKPEDTSVYYCARPNLLSGDYWGQGTQVTVSS | high polyreactivity |
| QVQLVESGGGLVQAGGSLRLSCAASGRIFDPNVMVRYRTAPGKERELVAAIRTSGGRTYYADSVKGRFTISRDNAKNTVYLQMNSLKPEDTAVYYCAALYKGKYDYWGQGTQVNVSS | high polyreactivity |
| QVQLVESGGGLVQAGGSLRLSCAASGRIFDRNAMGWYRQAPGKERELVARISRTGGSTYYADSVKGRFTISRDNAKNTVYLQMNSLKPEDTAVYYCAASRGGGYDYWGQGTQVTVSS | high polyreactivity |
| QVQLVESGGGLVQAGGSLRLSCAASGRIFDRNAMGWYRQAPGTERELVAAISRRGGSTYYADSVKGRFTISRDNAMNTVYLQMNSLKPEDTAVYYCNTGYSTRLHDYWGQGTQVTVSS | high polyreactivity |
| QVQLVESGGGLVQAGGSLRLSCAASGRIFDRYAMGWYRQAPGKEMELVAAISSDANTYYADSVKGRFTISRDNAKNTVYLQMNSLKPEDTAVYYCAKVVKGDHPYDYWGQGTQVTVSS | high polyreactivity |
| QVQLVESGGGLVQAGGSLRLSCAASGRIFDRYAMGWYRQAPGKERELVAVITGGTGNTYYADSVKGRFTISRDNAKNTVYLQMNSLKPEDTAVYYCNARGGYYKFRYPLYYWGQGTQVTVSS | high polyreactivity |
| QVQLVESGGGLVQAGGSLRLSCAASGRIFDSNAMGWYRQAPGKERELVAAITYSGGGTFYADSVKGRITISRDNEKNTDYLQMNSLKPEDTAVYYCAARTSGKYRYYYWGQGTQVTVSS | high polyreactivity |
| QVQLVESGGGLVQAGGSLRLSCAASGRIFDSNDMGWYRQAPGKEREFVAAITSSGGSTYYADSVKGRFTISRDNAKNTVYLQMNSLKPEDTAVYYCAARVYPRPQSYDKRYYWGQGTQVTVSS | low polyreactivity |
| QVQLVESGGGLVQAGGSLRLSCAASGRIFDSYAMGWYRQAPGKERELVATISWDSATTYYADSVKGRFTISRDNAKNTVYLQMNSLKPEDTAVYYCNTRDLYGYPQVTGYDYWGQGTQVTVSS | low polyreactivity |
| QVQLVESGGGLVQAGGSLRLSCAASGRIFDTNVMGWYRQAPGTEREFVAAIRWNGGSTNYADSVKGRFTISRDNAKNTVYLQMNSLKPEDTAVYYCAADGSIGWRHIYEYWGQATQVTVSS | low polyreactivity |
| QVQLVESGGGLVQAGGSLRLSCAASGRIFDVNAMGWYRQAPGKERELVAAITYSDGSTYYADSVKGRFTISRDNAKNTVYLQMNSLKPEDTAVYYCAATQEPVTPQPYGYWGQGTQVTVSS | low polyreactivity |
| QVQLVESGGGLVQAGGSLRLSCAASGRIFDVYAMGWYRQAPGKERELVAAITGSGGSTYYADSVKGRFTISRDNAKNTVYLQMNSLKPEDTAVYYCNAVGIWFPIRLIVPYDYWGQGTQVTVSS | low polyreactivity |
| QVQLVESGGGLVQAGGSLRLSCAASGRIFDWYAMGWYRQAPGKERELVAAISTSGANTYYADSVKGRITISRDNAKNTVYLQMNSLKPEDSGVYYCATDPYQPYEGDYWGQGTQVTVSS | low polyreactivity |
| QVQLVESGGGLVQAGGSLRLSCAASGRIFDWYAMGWYRQAPGKERELVAAITTSADRTYYADSVKGRFTISRDNAKNTVYLQMNSMKPEDTAVYYCNADAFGGYDEYDYWGQGTQVTVSS | low polyreactivity |
| QVQLVESGGGLVQAGGSLRLSCAASGRIFDYNAMGWYRQAPAKERELVAAITWSGGSTHYADSVKGRFTISRDNAKNTVYLQMKSLKPEDTAVYYCAADIGGDYLVFYYRGGYDYWGQGNQVTVSS | low polyreactivity |
| QVQLVESGGGLVQAGGSLRLSCAASGRIFDYNAMGWYRQAPGKERELVAAINSGGSTYADSVKGRFTISRDNAKNTVYLQMNSLNPEDTAVYYCAKSLGQTDWEYDSWGQGTQVTVSS | low polyreactivity |
| QVQLVESGGGLVQAGGSLRLSCAASGRIFDYNDMGWYRQAPGTERELVAGISSGGSTYYADSVKGRFTISRDNAKNTVYLQMNSLKPEDTAVYYCAAGGRPYRGYGYWGQGTQVTVSS | high polyreactivity |
| QVQLVESGGGLVQAGGSLRLSCAASGRIFDYNTMGWYRQAPGKERELVAAITGGTGSTYYADSVKGRFTISRDNAKNTVYLQMNSLKPEDTAVYYCAAGFHKRVSPEILYDYWGQGTLVTVSS | low polyreactivity |
| QVQLVESGGGLVQAGGSLRLSCAASGRIFDYNVMGWYRQAPGKERELVADINGSGGGTNYADSVKGRFTISRDNAKNTVYLQINTLKPEDTAVYYCNADSYEYHVPYYDYRYDYCGQGTQVTVSS | low polyreactivity |
| QVQLVESGGGLVQAGGSLRLSCAASGRIFDYYAMAWYRQAPGKERELVSAISSNGVSTYYADSVKGRFTISRDNPKNTVYLQMNSLKPEDTAVYYCAADPTRHSSFPQYDSWGQGTQVTVSS | low polyreactivity |
| QVQLVESGGGLVQAGGSLRLSCAASGRIFDYYAMGSYRQAPGNERELVDAISSGDNTYYADSVKGRFTISRDNAKNTVYLQMNSLKPEDTAVYYCAADVSRFGYYGIGFYYWRQGTQVTVSS | low polyreactivity |
| QVQLVESGGGLVQAGGSLRLSCAASGRIFDYYAMGWYRQAPGKERELVAAISLIGASTYYADSVKGRFTISRDNAKNSVYLQMNSLKQEDPAVDYCAAQYAFEVPGYYREDYYWGQGTQVTVSS | low polyreactivity |
| QVQLVESGGGLVQAGGSLRLSCAASGRIFDYYAMGWYRQAPGKERELVAGITSDGDITYYADSVKGRFTISRDNAKNTVYLQMNSLKPEDTAVYYCAADSPHPVRYDYWGQGTQVTVSS | low polyreactivity |
